Assay results published in patent US20230322953A1 (HARBOUR BIOMED SHANGHAI, published 2023).

Columns and labels:
[1] = target: T1, human BCMA (human, UniProt Q02223 1-184); test: FACS on NCI-H929 cells
T1 construct: whole, on cells; also called hBCMA; TNFRSF17
T1 sequence (looked up): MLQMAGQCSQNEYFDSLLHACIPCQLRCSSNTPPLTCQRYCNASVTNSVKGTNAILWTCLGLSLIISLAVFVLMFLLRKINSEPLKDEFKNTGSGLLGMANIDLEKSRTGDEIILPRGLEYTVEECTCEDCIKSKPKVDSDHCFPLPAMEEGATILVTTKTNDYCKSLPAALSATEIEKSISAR

[2] = target: T2, human PD-L1 on cells (CHO-K1/hPDL1; MDA-MB-231) (human, UniProt Q9NZQ7 19-290); test: FACS, CHO-K1/hPDL1 cells (Experiment 2)
T2 construct: whole, on cells
T2 sequence (Q9NZQ7 19-290): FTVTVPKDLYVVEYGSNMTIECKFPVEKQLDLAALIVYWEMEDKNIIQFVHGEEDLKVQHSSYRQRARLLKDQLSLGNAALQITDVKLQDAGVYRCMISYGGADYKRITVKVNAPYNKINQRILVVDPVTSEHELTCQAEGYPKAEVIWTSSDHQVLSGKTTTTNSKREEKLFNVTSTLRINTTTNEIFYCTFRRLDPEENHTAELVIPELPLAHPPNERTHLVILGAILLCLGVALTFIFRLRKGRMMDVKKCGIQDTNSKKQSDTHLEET

[3] = target: T2, human PD-L1 on cells (CHO-K1/hPDL1; …); test: competition FACS: biotinylated PD-1 to CHO-K1/hPDL1 cells (Experiment 2)

B1: PR000274 (antibody, human IgG1, kappa, V domains shown)
VH: QVQLVQSGAEVKKPGSSVKVSCKASGGTFSNYWMHWVRQAPGQGLEWMGATYRGHSDTYYNQKFKGRVTITADKSTSTAYMELSSLRSEDTAVYYCARGAIYDGYDVLDNWGQGTLVTVSS
VL: DIQMTQSPSSLSASVGDRVTITCSASQDISNYLNWYQQKPGKAPKLLIYYTSNLHSGVPSRFSGSGSGTDFTLTISSLQPEDFATYYCQQYRKLPWTFGQGTKLEIKR
notes: also called Positive control 1; CA8-J6M0
EC50 [1]: 28.9 nM

B2: PR000416, anti-PD-L1 91G3H5H3(D54E), hIgG1 (antibody)
heavy: not shown
light: DIQMTQSPSTLSASVGDRVTVTCRASQSIYIWLAWYQQKPGKAPNLLIYKASSLETGVPSRFSGSGSGTEFTLTISSLQPDDFATYYCQQYYGSSRTFGQGTKVEIKRTVAAPSVFIFPPSDEQLKSGTASVVCLLNNFYPREAKVQWKVDNALQSGNSQESVTEQDSKDSTYSLSSTLTLSKADYEKHKVYACEVTHQGLSSPVTKSFNRGEC
EC50 [2]: 0.5 nM
Maximum MFI [2]: 8380 MFI
IC50 [3]: 0.27 nM
Maximum inhibition rate (%) [3]: 79.8%

B3: PR003880 (bispecific antibody, human IgG1, lambda, L234A L235A)
light: QAVVTQEPSLTVSPGGTVTLTCRSSTGAVTTSNYANWVQQKPGQAPRGLIGGTNKRAPWTPARFSGSLLGDKAALTLLGAQPEDEAEYFCALWYSNLWVFGGGTKLTVLGQPKAAPSVTLFPPSSEELQANKATLVCLISDFYPGAVTVAWKADSSPVKAGVETTTPSKQSNNKYAASSYLSLTPEQWKSHRSYSCQVTHEGSTVEKTVAPTECS
heavy: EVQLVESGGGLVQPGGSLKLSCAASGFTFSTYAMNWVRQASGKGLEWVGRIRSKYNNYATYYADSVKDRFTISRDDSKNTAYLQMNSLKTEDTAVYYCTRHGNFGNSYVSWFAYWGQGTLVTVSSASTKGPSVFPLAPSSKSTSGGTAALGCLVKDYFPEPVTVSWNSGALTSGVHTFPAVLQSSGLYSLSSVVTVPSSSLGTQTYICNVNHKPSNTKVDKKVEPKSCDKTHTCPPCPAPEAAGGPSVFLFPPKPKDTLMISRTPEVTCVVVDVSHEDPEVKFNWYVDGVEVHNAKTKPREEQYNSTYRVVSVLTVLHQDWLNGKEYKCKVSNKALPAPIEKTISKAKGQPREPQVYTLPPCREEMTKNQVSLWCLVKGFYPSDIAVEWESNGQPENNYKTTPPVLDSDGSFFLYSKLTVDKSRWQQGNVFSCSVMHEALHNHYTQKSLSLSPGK
chain: EVQLVETGGGLIQPGGSLRLSCAASGFTVSDAYMTWVRQAPGKGLEWVSVIFSGGNTYVSDSVKGRFTISRDNAKNTLYLQMNSLRAEDTALYYCARRNYDQTRGTDVFDIWGQGTMVTVSSASEPKSSDKTHTCPPCPAPEAAGGPSVFLFPPKPKDTLMISRTPEVTCVVVDVSHEDPEVKFNWYVDGVEVHNAKTKPREEQYNSTYRVVSVLTVLHQDWLNGKEYKCKVSNKALPAPIEKTISKAKGQPREPQVCTLPPSREEMTKNQVSLSCAVKGFYPSDIAVEWESNGQPENNYKTTPPVLDSDGSFFLVSKLTVDKSRWQQGNVFSCSVMHEALHNHYTQKSLSLSPGK
notes: BCMAxCD3, Fab-Fc-VH (structure 11); CD3 Fab of PR003886, BCMA VH of PR004560; IgG1 knob/hole, LALA
EC50 [1]: 5.6 nM
Maximum MFI [1]: 8660

B4: PR002300 (bispecific antibody, human IgG1, lambda, L234A L235A)
light: QAVVTQEPSLTVSPGGTVTLTCRSSTGAVTTSNYANWVQQKPGQAPRGLIGGTNKRAPWTPARFSGSLLGDKAALTLLGAQPEDEAEYFCALWYSNLWVFGGGTKLTVLGQPKAAPSVTLFPPSSEELQANKATLVCLISDFYPGAVTVAWKADSSPVKAGVETTTPSKQSNNKYAASSYLSLTPEQWKSHRSYSCQVTHEGSTVEKTVAPTECS
heavy: EVQLLESGGGLVQPGGSLRLSCAASGFTFSTYAMNWVRQAPGKGLEWVSRIRSKYNNYATYYADSVKDRFTISRDDSKSTLYLQMNSLRAEDTAVYYCVRHGNFGNSYVSWFAYWGQGTLVTVSSASTKGPSVFPLAPSSKSTSGGTAALGCLVKDYFPEPVTVSWNSGALTSGVHTFPAVLQSSGLYSLSSVVTVPSSSLGTQTYICNVNHKPSNTKVDKKVEPKSCDKTHTCPPCPAPEAAGGPSVFLFPPKPKDTLMISRTPEVTCVVVDVSHEDPEVKFNWYVDGVEVHNAKTKPREEQYNSTYRVVSVLTVLHQDWLNGKEYKCKVSNKALGAPIEKTISKAKGQPREPQVYTLPPCREEMTKNQVSLWCLVKGFYPSDIAVEWESNGQPENNYKTTPPVLDSDGSFFLYSKLTVDKSRWQQGNVFSCSVMHEALHNHYTQKSLSLSPGK
chain: EVQLLESGGGLVQPGGSLRLSCAASGFTFSSYAMIWVRQAPGKGLEWVSGISESGGSTYYADSVKGRFTISRDNSKNTLYLQMNSLRAEDTAVYFCVKDLDDILTGYYKDYWGQGTLVTVSSRTGGGGSGGGGSGGGGSKLEVQLLESGGGLVQPGGSLRLSCAASGFTFSSYAMIWVRQAPGKGLEWVSGISESGGSTYYADSVKGRFTISRDNSKNTLYLQMNSLRAEDTAVYFCVKDLDDILTGYYKDYWGQGTLVTVSSASEPKSSDKTHTCPPCPAPEAAGGPSVFLFPPKPKDTLMISRTPEVTCVVVDVSHEDPEVKFNWYVDGVEVHNAKTKPREEQYNSTYRVVSVLTVLHQDWLNGKEYKCKVSNKALGAPIEKTISKAKGQPREPQVCTLPPSREEMTKNQVSLSCAVKGFYPSDIAVEWESNGQPENNYKTTPPVLDSDGSFFLVSKLTVDKSRWQQGNVFSCSVMHEALHNHYTQKSLSLSPGK
notes: BCMAxCD3, Fab-Fc-VH(2) (structure 14); CD3 Fab of PR001848, two BCMA VH of PR000940, linker RT-GS_15-KL; IgG1 knob/hole, AAG
Maximum MFI [1]: 44200

B5: PR002332 (bispecific antibody, human IgG1, lambda, L234A L235A)
light: QAVVTQEPSLTVSPGGTVTLTCRSSTGAVTTSNYANWVQQKPGQAPRGLIGGTNKRAPWTPARFSGSLLGDKAALTLLGAQPEDEAEYFCALWYSNLWVFGGGTKLTVLGQPKAAPSVTLFPPSSEELQANKATLVCLISDFYPGAVTVAWKADSSPVKAGVETTTPSKQSNNKYAASSYLSLTPEQWKSHRSYSCQVTHEGSTVEKTVAPTECS
heavy: EVQLLESGGGLVQPGGSLRLSCAASGFTFSTYAMNWVRQAPGKGLEWVSRIRSKYNNYATYYADSVKDRFTISRDDSKSTLYLQMNSLRAEDTAVYYCVRHGNFGNSYVSWFAYWGQGTLVTVSSASTKGPSVFPLAPSSKSTSGGTAALGCLVKDYFPEPVTVSWNSGALTSGVHTFPAVLQSSGLYSLSSVVTVPSSSLGTQTYICNVNHKPSNTKVDKKVEPKSCDKTHTCPPCPAPEAAGGPSVFLFPPKPKDTLMISRTPEVTCVVVDVSHEDPEVKFNWYVDGVEVHNAKTKPREEQYNSTYRVVSVLTVLHQDWLNGKEYKCKVSNKALGAPIEKTISKAKGQPREPQVYTLPPCREEMTKNQVSLWCLVKGFYPSDIAVEWESNGQPENNYKTTPPVLDSDGSFFLYSKLTVDKSRWQQGNVFSCSVMHEALHNHYTQKSLSLSPGK
chain: EVQLVETGGGLIQPGGSLRLSCAASGFTVSDNYMTWVRQAPGKGLEWVSVIFSGGNTYYADSVKGRFTISRDNAKNTLYLQMNSLRAEDTALYYCARRNYDDTRGTDVFDIWGQGTMVTVSSRTGGGGSGGGGSGGGGSKLEVQLVETGGGLIQPGGSLRLSCAASGFTVSSNYMTWVRQAPGKGLEWVSVIFSGGSTYYADSVKGRFTISRDNSKNTLYLQMNSLRAEDTAVYYCARRIAVAGHDVFDIWGQGTMVTVSSASEPKSSDKTHTCPPCPAPEAAGGPSVFLFPPKPKDTLMISRTPEVTCVVVDVSHEDPEVKFNWYVDGVEVHNAKTKPREEQYNSTYRVVSVLTVLHQDWLNGKEYKCKVSNKALGAPIEKTISKAKGQPREPQVCTLPPSREEMTKNQVSLSCAVKGFYPSDIAVEWESNGQPENNYKTTPPVLDSDGSFFLVSKLTVDKSRWQQGNVFSCSVMHEALHNHYTQKSLSLSPGK
notes: BCMAxCD3, Fab-Fc-VH'-VH'' (structure 15); IgG1 knob/hole, AAG
EC50 [1]: 9 nM
Maximum MFI [1]: 84500

B6: PR003882 (bispecific antibody, human IgG1, lambda, L234A L235A)
light: QAVVTQEPSLTVSPGGTVTLTCRSSTGAVTTSNYANWVQQKPGQAPRGLIGGTNKRAPWTPARFSGSLLGDKAALTLLGAQPEDEAEYFCALWYSNLWVFGGGTKLTVLGQPKAAPSVTLFPPSSEELQANKATLVCLISDFYPGAVTVAWKADSSPVKAGVETTTPSKQSNNKYAASSYLSLTPEQWKSHRSYSCQVTHEGSTVEKTVAPTECS
heavy: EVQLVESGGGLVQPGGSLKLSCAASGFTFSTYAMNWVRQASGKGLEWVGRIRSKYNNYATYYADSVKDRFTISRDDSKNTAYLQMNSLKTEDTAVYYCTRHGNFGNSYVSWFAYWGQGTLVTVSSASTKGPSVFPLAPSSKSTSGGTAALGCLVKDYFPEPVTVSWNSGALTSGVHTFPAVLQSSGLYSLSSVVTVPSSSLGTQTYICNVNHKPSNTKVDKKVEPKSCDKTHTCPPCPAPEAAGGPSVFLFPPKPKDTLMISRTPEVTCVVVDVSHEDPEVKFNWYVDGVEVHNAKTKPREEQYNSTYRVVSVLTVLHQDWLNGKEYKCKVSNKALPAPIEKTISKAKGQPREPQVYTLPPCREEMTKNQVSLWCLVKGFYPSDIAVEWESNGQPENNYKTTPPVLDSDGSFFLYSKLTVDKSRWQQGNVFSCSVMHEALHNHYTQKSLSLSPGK
chain: EVQLVETGGGLIQPGGSLRLSCAASGFTVSDSYMTWVRQAPGKGLEWVSVIFSGGKTYYSDSVKGRFTISRDNAKNTLYLQMNSLRAEDTALYYCARRNYDQTLGTDVFDIWGQGTMVTVSSASEPKSSDKTHTCPPCPAPEAAGGPSVFLFPPKPKDTLMISRTPEVTCVVVDVSHEDPEVKFNWYVDGVEVHNAKTKPREEQYNSTYRVVSVLTVLHQDWLNGKEYKCKVSNKALPAPIEKTISKAKGQPREPQVCTLPPSREEMTKNQVSLSCAVKGFYPSDIAVEWESNGQPENNYKTTPPVLDSDGSFFLVSKLTVDKSRWQQGNVFSCSVMHEALHNHYTQKSLSLSPGK
notes: BCMAxCD3, Fab-Fc-VH (structure 11); CD3 Fab of PR003886, BCMA VH of PR004562; IgG1 knob/hole, LALA
EC50 [1]: 1.8 nM
Maximum MFI [1]: 11100

B7: PR002299 (bispecific antibody, human IgG1, lambda, L234A L235A)
light: QAVVTQEPSLTVSPGGTVTLTCRSSTGAVTTSNYANWVQQKPGQAPRGLIGGTNKRAPWTPARFSGSLLGDKAALTLLGAQPEDEAEYFCALWYSNLWVFGGGTKLTVLGQPKAAPSVTLFPPSSEELQANKATLVCLISDFYPGAVTVAWKADSSPVKAGVETTTPSKQSNNKYAASSYLSLTPEQWKSHRSYSCQVTHEGSTVEKTVAPTECS
heavy: EVQLLESGGGLVQPGGSLRLSCAASGFTFSTYAMNWVRQAPGKGLEWVSRIRSKYNNYATYYADSVKDRFTISRDDSKSTLYLQMNSLRAEDTAVYYCVRHGNFGNSYVSWFAYWGQGTLVTVSSASTKGPSVFPLAPSSKSTSGGTAALGCLVKDYFPEPVTVSWNSGALTSGVHTFPAVLQSSGLYSLSSVVTVPSSSLGTQTYICNVNHKPSNTKVDKKVEPKSCDKTHTCPPCPAPEAAGGPSVFLFPPKPKDTLMISRTPEVTCVVVDVSHEDPEVKFNWYVDGVEVHNAKTKPREEQYNSTYRVVSVLTVLHQDWLNGKEYKCKVSNKALGAPIEKTISKAKGQPREPQVYTLPPCREEMTKNQVSLWCLVKGFYPSDIAVEWESNGQPENNYKTTPPVLDSDGSFFLYSKLTVDKSRWQQGNVFSCSVMHEALHNHYTQKSLSLSPGK
chain: EVQLLESGGGLVQPGGSLRLSCAASGFTFSSYAMIWVRQAPGKGLEWVSGISESGGSTYYADSVKGRFTISRDNSKNTLYLQMNSLRAEDTAVYFCVKDLDDILTGYYKDYWGQGTLVTVSSRTGGGGSKLEVQLLESGGGLVQPGGSLRLSCAASGFTFSSYAMIWVRQAPGKGLEWVSGISESGGSTYYADSVKGRFTISRDNSKNTLYLQMNSLRAEDTAVYFCVKDLDDILTGYYKDYWGQGTLVTVSSASEPKSSDKTHTCPPCPAPEAAGGPSVFLFPPKPKDTLMISRTPEVTCVVVDVSHEDPEVKFNWYVDGVEVHNAKTKPREEQYNSTYRVVSVLTVLHQDWLNGKEYKCKVSNKALGAPIEKTISKAKGQPREPQVCTLPPSREEMTKNQVSLSCAVKGFYPSDIAVEWESNGQPENNYKTTPPVLDSDGSFFLVSKLTVDKSRWQQGNVFSCSVMHEALHNHYTQKSLSLSPGK
notes: BCMAxCD3, Fab-Fc-VH(2) (structure 14); CD3 Fab of PR001848, two BCMA VH of PR000940, linker RT-GS_5-KL; IgG1 knob/hole, AAG
Maximum MFI [1]: 32800
